Columns and labels:
human MerTK [1] = target: T1, human MerTK (human, UniProt Q12866 26-499); test: SPR BIAcore T200, Ab captured, 37C
T1 construct: also called HuMER
T1 sequence: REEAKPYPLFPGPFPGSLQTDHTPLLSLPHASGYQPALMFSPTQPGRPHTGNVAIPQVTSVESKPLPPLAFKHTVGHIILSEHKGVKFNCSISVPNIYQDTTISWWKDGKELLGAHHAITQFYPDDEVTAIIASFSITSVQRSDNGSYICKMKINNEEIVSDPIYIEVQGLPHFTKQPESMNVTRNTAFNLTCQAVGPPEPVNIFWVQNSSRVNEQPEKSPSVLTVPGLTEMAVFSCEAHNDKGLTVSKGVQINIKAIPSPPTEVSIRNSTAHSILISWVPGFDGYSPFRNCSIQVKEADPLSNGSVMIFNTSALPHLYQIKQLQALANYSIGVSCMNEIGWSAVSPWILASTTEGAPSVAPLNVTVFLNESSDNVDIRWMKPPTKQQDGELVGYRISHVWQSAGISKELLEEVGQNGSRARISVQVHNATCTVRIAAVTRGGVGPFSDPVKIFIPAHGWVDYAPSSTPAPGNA
Method: Each humanized mutation variant was subject to BIAcore analysis to determine the important rabbit residues for binding and stability. Binding affinity determinations were obtained using Surface Plasmon Resonance (SRP) measurements from a BIAcore™-T200 instrument. Briefly, each humanized mutation variant antibody was captured to achieve approximately 100 RU (Response Units). Then, 3-fold serial dilutions of human MerTK (0.4 nM to 100 nM) diluted in HBS-EP buffer (0.01M HEPES pH 7.4, 0.15M NaCl, 3 mM EDTA and 0.05% v/v surfactant P20) was injected into the BIAcore™-T200 instrument at 37° C. with a flow rate of 30 μl/min. Association rates (kₒₙ) and dissociation rates (koff) were calculated using a simple one-to-one Langmuir binding model (BIAcore T200 evaluation software version 2.0). The equilibrium dissociation constant (KD) was calculated as the ratio koff/kₒₙ.

human MerTK [2] = target: T1, human MerTK; test: SPR BIAcore T200, Ab captured, 25C
Method: (§1) All binding affinity determinations were obtained using Surface Plasmon Resonance (SPR) measurements from a BIAcore™-T200 instrument. Briefly, each rabbit or humanized antibody was captured to achieve approximately 100 RU (Response Units). Then, 3-fold serial dilutions of MerTK from various species (0.4 nM to 100 nM) diluted in HBS-EP buffer (0.01M HEPES pH 7.4, 0.15M NaCl, 3 mM EDTA and 0.05% v/v surfactant P20) was injected into the BIAcore™-T200 instrument at 25° C. or 37° C. with a flow rate of 30 μl/min. Association rates (kₒₙ) and dissociation rates (koff) were calculated using a simple one-to-one Langmuir binding model (BIAcore T200 evaluation software version 2.0). The equilibrium dissociation constant (KD) was calculated as the ratio koff/kₒₙ.

cynomolgus monkey MerTK = target: T2, cynomolgus monkey MerTK (cynomolgus monkey, UniProt A0A2K5V1H9 32-505); test: SPR BIAcore T200, Ab captured, 25C
T2 construct: Soluble analyte in SPR; also called Cyno MerTK
T2 sequence: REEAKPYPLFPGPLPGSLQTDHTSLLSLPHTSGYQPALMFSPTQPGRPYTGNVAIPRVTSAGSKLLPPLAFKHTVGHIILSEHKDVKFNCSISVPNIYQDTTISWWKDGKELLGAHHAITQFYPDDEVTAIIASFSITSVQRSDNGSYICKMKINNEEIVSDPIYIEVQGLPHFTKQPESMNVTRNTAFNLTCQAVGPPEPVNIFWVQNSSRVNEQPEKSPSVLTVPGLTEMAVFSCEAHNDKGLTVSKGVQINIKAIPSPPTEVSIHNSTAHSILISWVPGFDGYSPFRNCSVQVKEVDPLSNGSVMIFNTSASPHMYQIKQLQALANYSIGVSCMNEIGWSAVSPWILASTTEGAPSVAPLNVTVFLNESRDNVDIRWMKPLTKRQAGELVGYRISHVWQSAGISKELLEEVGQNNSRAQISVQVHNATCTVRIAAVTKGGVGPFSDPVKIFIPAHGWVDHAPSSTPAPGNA
Method: as §1

mouse MerTK = target: T3, mouse MerTK (mouse, UniProt Q60805 23-496); test: SPR BIAcore T200, Ab captured, 25C
T3 construct: also called MuMER
T3 sequence (looked up): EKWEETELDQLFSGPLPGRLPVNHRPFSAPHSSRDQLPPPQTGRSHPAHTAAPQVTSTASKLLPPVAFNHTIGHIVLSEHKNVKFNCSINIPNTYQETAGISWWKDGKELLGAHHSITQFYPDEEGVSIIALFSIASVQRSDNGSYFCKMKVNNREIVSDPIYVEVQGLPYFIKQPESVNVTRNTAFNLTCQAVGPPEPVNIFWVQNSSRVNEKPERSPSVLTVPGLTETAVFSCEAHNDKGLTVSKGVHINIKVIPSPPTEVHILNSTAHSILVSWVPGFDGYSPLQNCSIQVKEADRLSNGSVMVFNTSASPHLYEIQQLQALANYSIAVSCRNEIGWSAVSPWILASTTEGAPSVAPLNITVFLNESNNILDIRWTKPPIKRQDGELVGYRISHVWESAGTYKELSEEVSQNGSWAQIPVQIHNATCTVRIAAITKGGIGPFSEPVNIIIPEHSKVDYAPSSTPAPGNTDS
Method: as §1

HuMER (R26-A499) = target: T4, HuMER (R26-A499) (human, UniProt Q12866 26-499); test: SPR BIAcore T200, Ab captured, 25C
T4 construct: Extracellular domain with both Ig-like and both fibronectin-like domains; also called human MerTK extracellular domain
T4 sequence: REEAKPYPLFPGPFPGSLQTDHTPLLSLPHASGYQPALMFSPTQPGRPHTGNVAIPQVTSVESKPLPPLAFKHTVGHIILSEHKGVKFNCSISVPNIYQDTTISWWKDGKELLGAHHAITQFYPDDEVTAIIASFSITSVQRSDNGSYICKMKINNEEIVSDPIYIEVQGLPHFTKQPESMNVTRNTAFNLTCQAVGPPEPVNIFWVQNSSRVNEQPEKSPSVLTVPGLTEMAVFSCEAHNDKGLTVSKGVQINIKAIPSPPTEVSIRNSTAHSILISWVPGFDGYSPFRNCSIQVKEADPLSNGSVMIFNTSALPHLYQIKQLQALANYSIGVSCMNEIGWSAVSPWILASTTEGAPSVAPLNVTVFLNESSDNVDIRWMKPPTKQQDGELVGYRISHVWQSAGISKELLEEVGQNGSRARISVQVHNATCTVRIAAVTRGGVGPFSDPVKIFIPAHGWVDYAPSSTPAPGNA
Method: (§2) Binding affinity determinations were obtained using Surface Plasmon Resonance (SRP) measurements from a BIAcore™-T200 instrument. Briefly, each rabbit antibody was captured to achieve approximately 100 RU (Response Units). Then, 3-fold serial dilutions of the various MerTK domains (0.4 nM to 100 nM) diluted in HBS-EP buffer (0.01M HEPES pH 7.4, 0.15M NaCl, 3 mM EDTA and 0.05% v/v surfactant P20) was injected into the BIAcore™-T200 instrument at 25° C. or 37° C. with a flow rate of 30 μl/min. Association rates (kₒₙ) and dissociation rates (koff) were calculated using a simple one-to-one Langmuir binding model (BIAcore T200 evaluation software version 2.0). The equilibrium dissociation constant (KD) was calculated as the ratio koff/kₒₙ.
(§3) Antibody epitope determination was assessed by BIAcore analysis for rabbit antibodies binding against both the human and mouse MerTK extracellular domain (HuMER R26-A499 and MuMER E23-S496), Ig1&2 domain, Ig1-only domain, and Ig2-only domain (TABLE 18). Human MerTK and its domains are shown in light gray, while mouse MerTK and its domains are shown in dark gray.

MuMER (E23-S496) = target: T5, MuMER (E23-S496) (mouse, UniProt Q60805 23-496); test: SPR BIAcore T200, Ab captured, 25C
T5 construct: range 23-496; also called mouse MerTK extracellular domain
T5 sequence (looked up): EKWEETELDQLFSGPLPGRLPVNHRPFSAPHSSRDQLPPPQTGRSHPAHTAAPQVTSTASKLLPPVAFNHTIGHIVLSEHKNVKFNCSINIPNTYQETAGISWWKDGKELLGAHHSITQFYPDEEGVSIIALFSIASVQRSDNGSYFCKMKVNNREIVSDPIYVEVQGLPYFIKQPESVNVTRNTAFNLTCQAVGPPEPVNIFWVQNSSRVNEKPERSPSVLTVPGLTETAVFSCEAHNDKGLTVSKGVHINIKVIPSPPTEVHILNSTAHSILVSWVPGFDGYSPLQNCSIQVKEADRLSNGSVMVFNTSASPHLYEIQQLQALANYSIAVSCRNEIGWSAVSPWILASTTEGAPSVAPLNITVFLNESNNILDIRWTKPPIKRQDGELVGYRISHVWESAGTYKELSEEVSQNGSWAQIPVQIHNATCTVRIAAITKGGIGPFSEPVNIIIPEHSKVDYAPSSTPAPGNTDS
Method: as §2, §3

Binder | Kd (human MerTK [1]) | Kd (human MerTK [2]) | Kd (cynomolgus monkey MerTK) | Kd (mouse MerTK) | Kd (HuMER (R26-A499)) | Kd (MuMER (E23-S496))
h9E3.FN.V1 LC A2I (antibody, human IgG1, name in Kabat numbering, V domains shown, Framework variant of h9E3.FN.v1 (human IgG1)) VH: EQQLVESGGGLIQPGGSLRLSCAVSGFSLSSNAMSWVRQAPGKGLEWIGIISSSGSTYSASWAKGRFTISKDSSKNTMYLQMNSLRAEDTAVYFCARVGFFVGYGAYDYGIIHRLDLWGQGTLVTVSS VL: DIQLTQSPSTLSASVGDRVTITCQSSKSIYNNNWLSWYQQKPGKPPKLLIYDASDLASGVPSRFSGSGSGTEFTLTISSLQPDDFATYYCAGGYSGDSDYAFGGGTKVEIK | 10.7 nM |  |  |  |  | 
h9E3.FN.V1 LC L4M (antibody, human IgG1, name in Kabat numbering, V domains shown, Framework variant of h9E3.FN.v1 (human IgG1)) VH: EQQLVESGGGLIQPGGSLRLSCAVSGFSLSSNAMSWVRQAPGKGLEWIGIISSSGSTYSASWAKGRFTISKDSSKNTMYLQMNSLRAEDTAVYFCARVGFFVGYGAYDYGIIHRLDLWGQGTLVTVSS VL: DAQMTQSPSTLSASVGDRVTITCQSSKSIYNNNWLSWYQQKPGKPPKLLIYDASDLASGVPSRFSGSGSGTEFTLTISSLQPDDFATYYCAGGYSGDSDYAFGGGTKVEIK | 7.5 nM |  |  |  |  | 
h9E3.FN.V1 LC P43A (antibody, name in Kabat numbering, V domains shown, Framework variant of h9E3.FN.v1 (human IgG1)) VH: EQQLVESGGGLIQPGGSLRLSCAVSGFSLSSNAMSWVRQAPGKGLEWIGIISSSGSTYSASWAKGRFTISKDSSKNTMYLQMNSLRAEDTAVYFCARVGFFVGYGAYDYGIIHRLDLWGQGTLVTVSS VL: DAQLTQSPSTLSASVGDRVTITCQSSKSIYNNNWLSWYQQKPGKAPKLLIYDASDLASGVPSRFSGSGSGTEFTLTISSLQPDDFATYYCAGGYSGDSDYAFGGGTKVEIK | 15 nM |  |  |  |  | 
Rbt8F4 (antibody, V domains shown, Recombinant rabbit monoclonal antibody, Expi293, protein A purified) VH: QSVQESGGRLVTPGTPLTLTCTVSGFSLINYPMSWVRQAPGKGLEWIGVISSTGGTNYASWAKGRFTISKTSTTVDLKITSPTTEDTATYFCARVDFLVYLGGAYIIWGLDLWGQGTLVTVSS VL: AAVLTQTPSPVSAAVGGTVTINCQSSPNIYSNYLSWFQQKPGQPPKILIYGASTLASGVPSRFKGSGSGTQFTLTISDVQCDDAATYYCAGGYSDSSEAYAFGGGTEVVVK |  | 44 nM | 14.7 nM | 2.3 nM | 44 nM | 2.3 nM
Rbt22C4 (antibody, V domains shown, Recombinant rabbit monoclonal antibody, Expi293, protein A purified) VH: QSVEESGGRLVTPGTPLTLTCTVSGFSLSTYSMSWVRQAPGKGLEWLGIVSVAIDPVYATWARGRFTISRTSTTVNLKITSPTTEDTATYFCVRVAFSTNGIPHRLDLWGQGTLVTVSS VL: AQVLTQTASSVSAAVGGTVTISCQSSPSVYNHNWLSWYQQKPGQPPKLLIYEASKLASGVPSRFSGSGSGTQFTLTISDVQCDEAATYYCAGGFSSGSDSFAFGGGTEVVVT |  | 94 nM | 82.2 nM | 2.2 nM | 94 nM | 2.2 nM
Rbt13D8 (antibody, V domains shown, Recombinant rabbit monoclonal antibody, Expi293, protein A purified) VH: QSLEESGGRLVTPGTPLTLTCTVSGFSFSSYSMGWVRQAPGKGPEYIGVISASGTTYYASWVNGRFTISKTSTTMDLKMTSPTAADTATYFCARAAFTAYNRGSCVIHRLDLWGQGTLVTVSS VL: AQVLTQTASSVSAAVGGTVTINCQASQSVYDSKWLAWYQQKPGQPPKLLIYSASTLASGVPSRFKGSGSGTQFTLTISDLECDDAATYYCAGAYTDNIVFGGGTEVVVK |  | 4.3 nM | 3.8 nM | 1.2 nM | 4.3 nM | 1.2 nM

From patent US20220135701A1 (Genentech, published 2022)
